Reference: PMC13500710
Where two headings read alike, the source gives them in different places.

T1: ORC1 full length (Homo sapiens, UniProt Q13415 1-861)
T1 sequence: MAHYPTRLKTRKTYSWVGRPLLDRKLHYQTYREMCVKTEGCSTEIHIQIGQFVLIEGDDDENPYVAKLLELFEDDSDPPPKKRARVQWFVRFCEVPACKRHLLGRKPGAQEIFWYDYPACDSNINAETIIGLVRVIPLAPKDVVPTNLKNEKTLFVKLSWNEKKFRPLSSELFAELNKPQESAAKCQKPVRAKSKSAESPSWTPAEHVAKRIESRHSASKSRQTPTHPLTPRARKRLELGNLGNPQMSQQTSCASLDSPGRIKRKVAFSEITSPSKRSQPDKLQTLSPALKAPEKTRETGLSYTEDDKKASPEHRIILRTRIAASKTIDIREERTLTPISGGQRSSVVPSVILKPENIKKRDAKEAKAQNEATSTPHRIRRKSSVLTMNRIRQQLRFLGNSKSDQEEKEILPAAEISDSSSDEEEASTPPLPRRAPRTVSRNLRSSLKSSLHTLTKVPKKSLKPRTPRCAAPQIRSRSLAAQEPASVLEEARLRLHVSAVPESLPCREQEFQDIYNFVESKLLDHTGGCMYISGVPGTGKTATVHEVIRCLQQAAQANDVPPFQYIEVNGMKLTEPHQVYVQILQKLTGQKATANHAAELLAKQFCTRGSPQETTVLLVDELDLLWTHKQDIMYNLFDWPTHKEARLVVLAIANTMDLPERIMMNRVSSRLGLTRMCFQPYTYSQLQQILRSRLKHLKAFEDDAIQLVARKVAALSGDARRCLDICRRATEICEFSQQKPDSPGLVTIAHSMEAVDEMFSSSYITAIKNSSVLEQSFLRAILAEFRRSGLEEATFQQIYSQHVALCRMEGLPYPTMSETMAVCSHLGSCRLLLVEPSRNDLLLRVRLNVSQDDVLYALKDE

T2: ORC1 WHD (Homo sapiens, UniProt Q13415 783-861)
T2 sequence: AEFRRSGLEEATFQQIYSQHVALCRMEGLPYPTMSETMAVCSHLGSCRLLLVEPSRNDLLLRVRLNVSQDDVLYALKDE

T3: ORC1 BAH domain (Homo sapiens, UniProt Q13415 1-200)
T3 sequence: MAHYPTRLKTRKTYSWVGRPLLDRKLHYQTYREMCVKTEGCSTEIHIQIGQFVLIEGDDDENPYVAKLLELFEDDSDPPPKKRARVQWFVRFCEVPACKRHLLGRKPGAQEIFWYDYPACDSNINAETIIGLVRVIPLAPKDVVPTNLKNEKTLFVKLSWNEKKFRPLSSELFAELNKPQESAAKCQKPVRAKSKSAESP

T4: ORC1 mutant (EYYE) (Homo sapiens, UniProt Q13415 1-861, R297E;S450Y;T593Y;R846E)
T4 sequence: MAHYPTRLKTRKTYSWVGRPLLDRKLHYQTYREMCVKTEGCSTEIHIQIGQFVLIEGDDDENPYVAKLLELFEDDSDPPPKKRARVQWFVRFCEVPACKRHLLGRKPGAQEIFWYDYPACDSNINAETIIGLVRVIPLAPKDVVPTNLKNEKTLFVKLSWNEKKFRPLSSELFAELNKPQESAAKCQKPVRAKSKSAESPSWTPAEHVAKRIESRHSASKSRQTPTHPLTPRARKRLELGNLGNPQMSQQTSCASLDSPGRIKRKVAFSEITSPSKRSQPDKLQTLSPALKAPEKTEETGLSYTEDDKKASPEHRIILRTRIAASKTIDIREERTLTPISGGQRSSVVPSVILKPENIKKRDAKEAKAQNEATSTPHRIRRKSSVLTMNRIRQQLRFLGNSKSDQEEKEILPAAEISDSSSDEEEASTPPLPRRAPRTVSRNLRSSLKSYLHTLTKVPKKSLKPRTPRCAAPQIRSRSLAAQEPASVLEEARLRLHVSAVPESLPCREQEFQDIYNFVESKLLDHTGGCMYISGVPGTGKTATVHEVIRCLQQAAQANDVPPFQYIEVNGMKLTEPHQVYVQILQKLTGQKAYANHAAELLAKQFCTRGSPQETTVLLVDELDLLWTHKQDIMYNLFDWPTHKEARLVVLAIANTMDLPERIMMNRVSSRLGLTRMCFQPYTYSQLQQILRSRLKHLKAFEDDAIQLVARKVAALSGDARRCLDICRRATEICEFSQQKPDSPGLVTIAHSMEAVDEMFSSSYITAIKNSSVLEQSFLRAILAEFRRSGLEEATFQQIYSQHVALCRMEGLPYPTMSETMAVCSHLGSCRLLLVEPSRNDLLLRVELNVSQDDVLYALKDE


What was measured:
Test in all cases: EMSA
ORC1 full length [1] = target: T1, ORC1 full length
ORC1 full length [2] = target: T1, ORC1 full length; remark: listed apart in the source
ORC1 full length [3] = target: T1, ORC1 full length; remark: listed apart in the source
ORC1 WHD = target: T2, ORC1 WHD
ORC1 BAH domain = target: T3, ORC1 BAH domain
ORC1 mutant (EYYE) = target: T4, ORC1 mutant (EYYE)

Binder | binding result (ORC1 full length [1]) | binding result (ORC1 full length [3]) | also measured
CAGCCGCCCACUUUUGACAGGCCUGGGCGGGCUUCGCUUA (ssRNA) [MYC1, 32P] | no binding | – | –
CAGCCGCCCACUUUUGACAGGCCUGGGCGGGCUUCGCUUA (ssRNA) [MYC1, biotinylated] | – | – | binding result (ORC1 full length [2]): no binding
GAGCUCCCAAAUCUCUCCAGAUCUGCUAUCUCUCCUUCCU (ssRNA) [MYC2] | – | no binding | –
GTACGCGCGTGGCGTGGCGGTGGGCGCGCAGTGCGTTCTC (ssDNA) [dRM9] | no binding | – | –
GAUGGGAGGAAACGCUAAAGCCCAAGGUUUCAGAGGUGAU (ssRNA) [MYC3] | – | no binding | –
GAGAACGCACUGCGCGCCCACCGCCACGCCACGCGCGUAC (ssRNA) [RM9, biotinylated] | – | – | binding result (ORC1 WHD): no binding; binding result (ORC1 BAH domain): no binding; binding result (ORC1 mutant (EYYE)): no binding
